Measured values from article PMC11574045, “A cofactor-induced repressive type of transcription factor condensation can be induced by synthetic peptides to suppress tumorigenesis” (The EMBO Journal, 2024).

B1: ZFP36L1 (protein, UniProt P23950 1-338, looked up)
mRNA decay activator protein …: MTTTLVSATIFDLSEVLCKGNKMLNYSTPSAGGCLLDRKAVGTPAGGGFPRRHSVTLPSSKFHQNQLLSSLKGEPAPSLSSRDSRFRDRSFSEGGERLLPTQKQPGSGQVNSSRYKTELCRPFEENGACKYGDKCQFAHGIHELRSLTRHPKYKTELCRTFHTIGFCPYGPRCHFIHNAEERRALAGGRDLSADRPRLQHSFSFAGFPSAAATAAATGLLDSPTSITPPPILSADDLLGSPTLPDGTNNPFAFSSQELASLFAPSMGLPGGGSPTTFLFRPMSESPHMFDSPPSPQDSLSDHEGYLSSSSSSHSGSDSPTLDNSRRLPIFSRLSISDD
B2: ZFY (protein, UniProt P08048 1-801, looked up)
Zinc finger Y-chromosomal …: MDEDEFELQPQEPNSFFDGIGADATHMDGDQIVVEIQEAVFVSNIVDSDITVHNFVPDDPDSVVIQDVVEDVVIEEDVQCSDILEEADVSENVIIPEQVLDSDVTEEVSLPHCTVPDDVLASDITSTSMSMPEHVLTSESMHVCDIGHVEHMVHDSVVEAEIITDPLTSDIVSEEVLVADCAPEAVIDASGISVDQQDNDKASCEDYLMISLDDAGKIEHDGSTGVTIDAESEMDPCKVDSTCPEVIKVYIFKADPGEDDLGGTVDIVESEPENDHGVELLDQNSSIRVPREKMVYMTVNDSQQEDEDLNVAEIADEVYMEVIVGEEDAAVAAAAAAVHEQQIDEDEMKTFVPIAWAAAYGNNSDGIENRNGTASALLHIDESAGLGRLAKQKPKKKRRPDSRQYQTAIIIGPDGHPLTVYPCMICGKKFKSRGFLKRHMKNHPEHLAKKKYHCTDCDYTTNKKISLHNHLESHKLTSKAEKAIECDECGKHFSHAGALFTHKMVHKEKGANKMHKCKFCEYETAEQGLLNRHLLAVHSKNFPHICVECGKGFRHPSELRKHMRIHTGEKPYQCQYCEYRSADSSNLKTHIKTKHSKEMPFKCDICLLTFSDTKEVQQHTLVHQESKTHQCLHCDHKSSNSSDLKRHVISVHTKDYPHKCEMCEKGFHRPSELKKHVAVHKGKKMHQCRHCDFKIADPFVLSRHILSVHTKDLPFRCKRCRKGFRQQNELKKHMKTHSGRKVYQCEYCEYSTTDASGFKRHVISIHTKDYPHRCEYCKKGFRRPSEKNQHIMRHHKEVGLP
B3: CALR (protein, UniProt P27797 18-417, looked up)
Calreticulin: EPAVYFKEQFLDGDGWTSRWIESKHKSDFGKFVLSSGKFYGDEEKDKGLQTSQDARFYALSASFEPFSNKGQTLVVQFTVKHEQNIDCGGGYVKLFPNSLDQTDMHGDSEYNIMFGPDICGPGTKKVHVIFNYKGKNVLINKDIRCKDDEFTHLYTLIVRPDNTYEVKIDNSQVESGSLEDDWDFLPPKKIKDPDASKPEDWDERAKIDDPTDSKPEDWDKPEHIPDPDAKKPEDWDEEMDGEWEPPVIQNPEYKGEWKPRQIDNPDYKGTWIHPEIDNPEYSPDPSIYAYDNFGVLGLDLWQVKSGTIFDNFLITNDEAYAEEFGNETWGVTKAAEKQMKDKQDEEQRLKEEEEDKKRKEEEEAEDKEDDEDKDEDEEDEEDKEEDEEEDVPGQAKDEL
B4: ZFP67 (protein, UniProt O15156 1-539, looked up)
Zinc finger and BTB …: MGSPEDDLIGIPFPDHSSELLSCLNEQRQLGHLCDLTIRTQGLEYRTHRAVLAACSHYFKKLFTEGGGGAVMGAGGSGTATGGAGAGVCELDFVGPEALGALLEFAYTATLTTSSANMPAVLQAARLLEIPCVIAACMEILQGSGLEAPSPDEDDCERARQYLEAFATATASGVPNGEDSPPQVPLPPPPPPPPRPVARRSRKPRKAFLQTKGARANHLVPEVPTVPAHPLTYEEEEVAGRVGSSGGSGPGDSYSPPTGTASPPEGPQSYEPYEGEEEEEELVYPPAYGLAQGGGPPLSPEELGSDEDAIDPDLMAYLSSLHQDNLAPGLDSQDKLVRKRRSQMPQECPVCHKIIHGAGKLPRHMRTHTGEKPFACEVCGVRFTRNDKLKIHMRKHTGERPYSCPHCPARFLHSYDLKNHMHLHTGDRPYECHLCHKAFAKEDHLQRHLKGQNCLEVRTRRRRKDDAPPHYPPPSTAAASPAGLDLSNGHLDTFRLSLARFWEQSAPTGPPVSTPGPPDDDEEEGAPTTPQAEGAMESS

System: HEK293FT cells transfected with TF library
Experiment: Screening of TF condensates based on fluorescent puncta
Type: cell-based
Details: Figure 1B numerical data; TF library screen, one value per transcriptional factor
Method in brief: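 Puncta scoring used automated confocal imaging of fifty random fields per well, after anti-Flag or anti-GAL4 immunofluorescence (Alexa 488) in PFA-fixed cells. HEK293FT cells carried TF library plasmids delivered with PEI (1.6 μg/ml DNA). At 60 h they were switched for 12 h to glucose-containing or glucose-free medium.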

**Q.** With B1 as the molecule, how does the “Z score of condensed fraction” value read?
**A.** 0.2477

**Q.** Which “Z score of condensed fraction” value does the source give for B2 here?
**A.** -1.019

**Q.** Which “Z score of condensed fraction” value does the source give for B3 here?
**A.** 1.22

**Q.** With B4 as the molecule, how does the “Z score of condensed fraction” value read?
**A.** 0.1735
